In patent US10329331B2, “Polypeptides” (priority 2010, dated 2019):

How the values were obtained:
[1] = system: IgG molecules present in normal human sera; assay: Serum response analysis: ELISA of human serum IgG binding to albumin binding polypeptides; details: 126 positive sera diluted 50 times; polypeptide 2 μg/ml on albumin coated plates
Protocol: Each serum sample was tested as a singlet.

[2] = Small animal PET whole body distribution of 68Ga-labeled polypeptide; format: in vivo; details: rat, after intravenous injection, PET over […]
Protocol: The labeling mixture was incubated at 90° C. for 15 min before cooling, and the labeled protein was isolated by size exclusion purification on a NAP-5 column eluted with physiologically buffered saline.
A rat (277 g) was anesthetized with isoflurane (initially 5%, then 2% blended with 7:3 air/O2), controlled by an E-Z vaporizer using Microflex non-rebreather masks from Euthanex Corporation, and was kept on a heating pad (37° C.) while lying within a microPET Focus120 system (Siemens, CTI Concorde Microsystems). ^68Ga-PEP08296, 33 MBq, was dispensed in a syringe, diluted with saline to 0.5 ml and injected via the tail vein. Data were acquired from the whole body by moving the bed in a constant bed motion protocol for 1.5 h. Data were processed with MicroPET Manager and corrected for randoms, dead time and decay. Images were reconstructed by standard 2D filtered back projection using a ramp filter and evaluated using Inveon Research Workplace (Siemens Medical Solutions) software.

physchem = format: physicochemical
Protocol: Amicon Ultra centrifugal filter units, cut off of 3 kDa, (Millipore, Cat. No. UFC800324) were prerinsed with 2 ml NaPi buffer by centrifugation at 4000 g for 20 min in a swinging bucket rotor centrifuge (Multifuge, Heraeus). […] A 25 μl sample was removed (UF sample 1) for further analysis and the rest of the sample was transferred to a second centrifugal filter unit. The centrifugation and sample removal were repeated three times with spinning times of 8, 9 and 20 min respectively (UF sample 2, 3 and 4 respectively). Absorbance readings were performed using a NANODROP ND-1000 Spectrophotometer and by diluting UF samples 1-4 in NaPi buffer 2, 4, 6 and 12 times respectively. The concentrations were calculated using the extinction coefficient 1 Abs 280=1.955 mg/ml. Gel filtration was performed on a 1100 HPLC system (Agilent Technologies) using a Superdex75 10/300 GL column (GE Healthcare) which had been equilibrated in NaPi buffer. 10 μl of each UF sample were applied to the column; NaPi buffer was used as running buffer and the flow rate was 0.5 ml/min. A chromatogram of the molecular weight standard ovalbumin (GE Healthcare), injected at a concentration of 5 mg/ml was collected as well. Concentrations were determined by integrating the area under the curve.

[3] = system: CD3+ CD4+ T cells in peripheral blood mononuclear cells (PBMC)

CC[C@H](C)[C@H](NC(=O)[C@H](Cc1c[nH]cn1)NC(=O)[C@H](CC(C)C)NC(=O)[C@H](CCCCN)NC(=O)[C@H](CC(C)C)NC(=O)[C@H](C)NC(=O)[C@H](CCC(=O)O)NC(=O)[C@@H](NC(=O)CNC(=O)[C@H](CCC(=O)O)NC(=O)[C@@H](NC(=O)[C@@H](NC(=O)[C@H](CCCCN)NC(=O)[C@H](C)NC(=O)[C@H](CCCCN)NC(=O)[C@H](CC(N)=O)NC(=O)[C@@H](NC(=O)[C@H](CC(C)C)NC(=O)[C@H](CCCNC(=N)N)NC(=O)[C@H](CCCCN)NC(=O)[C@H](Cc1ccc(O)cc1)NC(=O)[C@H](Cc1ccccc1)NC(=O)[C@H](CC(=O)O)NC(=O)[C@H](CO)NC(=O)[C@@H](NC(=O)CNC(=O)[C@H](Cc1ccc(O)cc1)NC(=O)[C@H](CCCCN)NC(=O)[C@H](CC(=O)O)NC(=O)[C@H](CC(C)C)NC(=O)[C@H](CCC(=O)O)NC(=O)[C@H](CCCNC(=N)N)NC(=O)[C@H](CC(N)=O)NC(=O)[C@H](C)NC(=O)[C@H](CC(C)C)NC(=O)[C@@H](NC(=O)[C@H](CCCCN)NC(=O)[C@H](C)NC(=O)[C@H](CCC(=O)O)NC(=O)[C@H](C)NC(=O)[C@H](CC(C)C)NC(=O)[C@H](CO)NC(=O)[C@H](CO)NC(=O)CN)C(C)C)C(C)C)[C@@H](C)CC)[C@@H](C)O)C(C)C)C(C)C)C(=O)N[C@@H](CC(C)C)C(=O)N[C@@H](C)C(=O)N[C@@H](C)C(=O)N[C@@H](CC(C)C)C(=O)N1CCC[C@H]1C(=O)O [PEP06923]
reactivity with IgG in human sera (average OD-value, percentage of sera with IgG binding) [1]: highest average OD-value and the highest percentage of serum with IgG binding

CC[C@H](C)[C@H](NC(=O)[C@H](C)NC(=O)[C@H](CC(=O)O)NC(=O)[C@H](CCCCN)NC(=O)[C@H](CC(C)C)NC(=O)[C@H](C)NC(=O)[C@H](CCC(=O)O)NC(=O)[C@@H](NC(=O)CNC(=O)[C@H](CCC(=O)O)NC(=O)[C@@H](NC(=O)[C@@H](NC(=O)[C@H](CCCCN)NC(=O)[C@H](C)NC(=O)[C@H](CCCCN)NC(=O)[C@H](CC(=O)O)NC(=O)[C@@H](NC(=O)[C@H](CC(C)C)NC(=O)[C@H](CCCNC(=N)N)NC(=O)[C@H](CCCCN)NC(=O)[C@H](Cc1ccc(O)cc1)NC(=O)[C@H](Cc1ccccc1)NC(=O)[C@H](CC(=O)O)NC(=O)[C@H](CO)NC(=O)[C@@H](NC(=O)CNC(=O)[C@H](Cc1ccc(O)cc1)NC(=O)[C@H](CSC1CC(=O)N(CCNC(=O)CN2CCN(CC(=O)O)CCN(CC(=O)O)CCN(CC(=O)O)CC2)C1=O)NC(=O)[C@H](CC(=O)O)NC(=O)[C@H](CC(C)C)NC(=O)[C@H](CCC(=O)O)NC(=O)[C@H](C)NC(=O)[C@H](CC(N)=O)NC(=O)[C@H](C)NC(=O)[C@H](C)NC(=O)[C@H](CCC(=O)O)NC(=O)[C@H](CCCCN)NC(=O)[C@H](C)NC(=O)[C@H](CCC(=O)O)NC(=O)[C@H](C)NC(=O)[C@H](CC(C)C)NC(=O)[C@H](CO)NC(=O)CN)C(C)C)[C@@H](C)CC)[C@@H](C)O)C(C)C)C(C)C)C(=O)N[C@@H](CC(C)C)C(=O)N[C@@H](C)C(=O)N[C@@H](C)C(=O)N[C@@H](CC(C)C)C(=O)N1CCC[C@H]1C(=O)NCC(=O)O (single isomer, unassigned) [^68Ga-PEP08296, metal not drawn]
plasma clearance [2]: very slow

CC[C@H](C)[C@H](NC(=O)[C@H](C)NC(=O)[C@H](CC(=O)O)NC(=O)[C@H](CCCCN)NC(=O)[C@H](CC(C)C)NC(=O)[C@H](C)NC(=O)[C@H](CCC(=O)O)NC(=O)[C@@H](NC(=O)CNC(=O)[C@H](CCC(=O)O)NC(=O)[C@@H](NC(=O)[C@@H](NC(=O)[C@H](CCCCN)NC(=O)[C@H](C)NC(=O)[C@H](CCCCN)NC(=O)[C@H](CC(=O)O)NC(=O)[C@@H](NC(=O)[C@H](CC(C)C)NC(=O)[C@H](CCCNC(=N)N)NC(=O)[C@H](CCCCN)NC(=O)[C@H](Cc1ccc(O)cc1)NC(=O)[C@H](Cc1ccccc1)NC(=O)[C@H](CC(=O)O)NC(=O)[C@H](CO)NC(=O)[C@@H](NC(=O)CNC(=O)[C@H](Cc1ccc(O)cc1)NC(=O)[C@H](CO)NC(=O)[C@H](CC(=O)O)NC(=O)[C@H](CC(C)C)NC(=O)[C@H](CCC(=O)O)NC(=O)[C@H](C)NC(=O)[C@H](CC(N)=O)NC(=O)[C@H](C)NC(=O)[C@H](C)NC(=O)[C@H](CCC(=O)O)NC(=O)[C@H](CCCCN)NC(=O)[C@H](C)NC(=O)[C@H](CCC(=O)O)NC(=O)[C@H](C)NC(=O)[C@H](CC(C)C)NC(=O)[C@H](CO)NC(=O)CN)C(C)C)[C@@H](C)CC)[C@@H](C)O)C(C)C)C(C)C)C(=O)N[C@@H](CC(C)C)C(=O)N[C@@H](C)C(=O)N[C@@H](C)C(=O)N[C@@H](CC(C)C)C(=O)N1CCC[C@H]1C(=O)O [PEP07986]
solubility (physchem; pH 7.2): more than 42 mg/ml
solubility (physchem; pH 7.2, aqueous buffer): ≥ 42 mg/mL

CC[C@H](C)[C@H](NC(=O)[C@H](C)NC(=O)[C@H](CC(=O)O)NC(=O)[C@H](CCCCN)NC(=O)[C@H](CC(C)C)NC(=O)[C@H](C)NC(=O)[C@H](CCC(=O)O)NC(=O)[C@@H](NC(=O)CNC(=O)[C@H](CCC(=O)O)NC(=O)[C@@H](NC(=O)[C@@H](NC(=O)[C@H](CCCCN)NC(=O)[C@H](C)NC(=O)[C@H](CCCCN)NC(=O)[C@H](CC(=O)O)NC(=O)[C@@H](NC(=O)[C@H](CC(C)C)NC(=O)[C@H](CCCNC(=N)N)NC(=O)[C@H](CCCCN)NC(=O)[C@H](Cc1ccc(O)cc1)NC(=O)[C@H](Cc1ccccc1)NC(=O)[C@H](CC(=O)O)NC(=O)[C@H](CO)NC(=O)[C@@H](NC(=O)CNC(=O)[C@H](Cc1ccc(O)cc1)NC(=O)[C@H](CSC1CC(=O)N(CCNC(=O)CN2CCN(CC(=O)O)CCN(CC(=O)O)CCN(CC(=O)O)CC2)C1=O)NC(=O)[C@H](CC(=O)O)NC(=O)[C@H](CC(C)C)NC(=O)[C@H](CCC(=O)O)NC(=O)[C@H](C)NC(=O)[C@H](CC(N)=O)NC(=O)[C@H](C)NC(=O)[C@H](C)NC(=O)[C@H](CCC(=O)O)NC(=O)[C@H](CCCCN)NC(=O)[C@H](C)NC(=O)[C@H](CO)NC(=O)[C@H](C)NC(=O)[C@H](CC(C)C)NC(=O)CN)C(C)C)[C@@H](C)CC)[C@@H](C)O)C(C)C)C(C)C)C(=O)N[C@@H](CC(C)C)C(=O)N[C@@H](C)C(=O)N[C@@H](C)C(=O)N[C@@H](CC(C)C)C(=O)N1CCC[C@H]1C(=O)O (stereo partly drawn) [PEP07968]
immunogenicity classification [3]: non-immunogenic

CC[C@H](C)[C@H](NC(=O)[C@H](C)NC(=O)[C@H](CC(=O)O)NC(=O)[C@H](CCCCN)NC(=O)[C@H](CC(C)C)NC(=O)[C@H](C)NC(=O)[C@H](CCC(=O)O)NC(=O)[C@@H](NC(=O)CNC(=O)[C@H](CCC(=O)O)NC(=O)[C@@H](NC(=O)[C@@H](NC(=O)[C@H](CCCCN)NC(=O)[C@H](C)NC(=O)[C@H](CCCCN)NC(=O)[C@H](CC(=O)O)NC(=O)[C@@H](NC(=O)[C@H](CC(C)C)NC(=O)[C@H](CCCNC(=N)N)NC(=O)[C@H](CCCCN)NC(=O)[C@H](Cc1ccc(O)cc1)NC(=O)[C@H](Cc1ccccc1)NC(=O)[C@H](CC(=O)O)NC(=O)[C@H](CO)NC(=O)[C@@H](NC(=O)CNC(=O)[C@H](Cc1ccc(O)cc1)NC(=O)[C@H](CO)NC(=O)[C@H](CC(=O)O)NC(=O)[C@H](CC(C)C)NC(=O)[C@H](CCC(=O)O)NC(=O)[C@H](C)NC(=O)[C@H](CC(N)=O)NC(=O)[C@H](C)NC(=O)[C@H](C)NC(=O)[C@H](CCC(=O)O)NC(=O)[C@H](CCCCN)NC(=O)[C@H](C)NC(=O)[C@H](CCC(=O)O)NC(=O)[C@H](C)NC(=O)[C@H](CC(C)C)NC(=O)CN)C(C)C)[C@@H](C)CC)[C@@H](C)O)C(C)C)C(C)C)C(=O)N[C@@H](CC(C)C)C(=O)N[C@@H](C)C(=O)N[C@@H](C)C(=O)N[C@@H](CC(C)C)C(=O)N1CCC[C@H]1C(=O)O [PEP07914]
immunogenicity classification [3]: non-immunogenic
